The target of one assay is T1, cathepsin B (Homo sapiens, UniProt P07858).
T1 construct: Levels of cathepsin B activity were also measured in U87MG CM alone or pre-incubated; endogenous in cells; host or cells: U87MG (ATCC), 3-day serum-free conditioned medium
Briefly: Secreted cathepsin B activity in U87MG conditioned media. As to conditions: 10 μM CA074-ME; overnight incubation. Type of assay: biochemical. The procedure:
The human glioma cell line U87MG was established from surgically removed type III glioma/glioblastoma and obtained from ATCC. Cells (5×10^4 cells/ml) were plated in poly-L-lysine pre-coated dishes and grown at 37° C. in D-MEM (DME) supplemented with 100 U/ml penicillin, 100 μg/ml streptomycin and 10% heat-inactivated fetal bovine serum (FBS) (HyClone, Logan, Utah) in humidified atmosphere of 5% CO2/95% air until reached 80% confluence. Then, media were removed and the cells incubated for 3 days in serum-free DME to obtain conditioned media (CM). Conditioned media were collected and filtered (Millex-GV sterilizing filter membrane, 0.22 μm). Cells were then harvested for molecular and biochemical assays. […]

Assay [1] concerns U87MG cells. Briefly: U87MG growth in semi-solid (soft) agar. As to conditions: Alamar Blue. It counts as cell-based, human. The method, then: […] Approximately 15,000 cells±treatment were resuspended in 150 μl medium containing 0.3% agar, and seeded onto a well of a 24-well plate previously layered with 250 μl 0.6% agar. The solidified cell layer was covered with 50 μl DME±treatment which was replaced every three days over a 21 day period. Phase contrast images (6 fields/well) were captured using a digital video camera (Olympus U-CMT) and analyzed with Northern Eclipse v.5.0 software. Color images were transformed to grey scale, thresholded, and then converted to binary images. Number and area of colonies per field were calculated. In order to measure cell viability, at the end of the experiment, 40 μl alamar blue was added to each well and fluorescence readings were performed every 10 min for a period of 180 min. Experiments were repeated 2-3 times in triplicates.
(In general: The colour change of resazurin is a common sign of viable cells or microbes.)

Assay [2] has as its system human brain endothelial cells (HBEC). Particulars: disclosed in copending PCT/CA2006/000250; cited from earlier work.
The subject of another assay is U87MG cells on CAM. As to the kind of experiment: Experimental glioma assay: U87MG tumors on chick chorioallantoic membrane (CAM). It counts as in vivo, chicken (Gallus gallus). The procedure:
Fertilized chicken (Gallus gallus) eggs were obtained from the Canadian Food Inspection Agency and placed into an egg incubator at 37° C. and 67-70% humidity (day 0). At day 3, windows were cut in the egg shell and covered with surgical tape (Durapore,) until day 10. Then, a sterile Nunc Thermanox (Nunc Inc., Naperville, Ill.) plastic ring was placed onto the CAM, the delimited surface gently lacerated with a scalpel blade and a pellet of 10^6 U87MG cells deposited into the center of the ring. […] Digital photos were taken using a Canon 40D camera. At day 17, tumors were carefully removed from the CAM and weighted.

For assay [3], the system named is human brain endothelial cells (HBEC). Briefly: Capillary-like tube (CLT) formation by HBEC on Matrigel (in vitro angiogenesis). It counts as cell-based. As to conditions: 20 nM; stimuli U87MG CM, VEGF, IGF-1, bFGF; overnight. The method, then:
Human brain endothelial cells (HBEC) were obtained from small intracortical microvessels and capillaries (20-112 μm) harvested from temporal cortex from patients treated surgically for idiopathic epilepsy. Tissues were obtained with approval from the Institutional Research Ethics Committee. HBEC were separated from smooth muscle cells with cloning rings and grown at 37° C. in HBEC media containing Earle's salts, 25 mM 4-(2-hydroxyethyl)-1-piperazineethanesulfonic acid (HEPES), 4.35 g/L sodium bicarbonate, and 3 mM L-glutamine, 10% FBS, 5% human serum, 20% of media conditioned by murine melanoma cells (mouse melanoma, Cloudman S91, clone M-3, melanin-producing cells), 5 μg/ml insulin, […], 5 ng/ml selenium, and 10 μg/ml endothelial cell growth supplement. HBEC cultures were routinely characterized morphologically and biochemically.
In vitro angiogenesis was assessed by endothelial tube formation in growth factor reduced Matrigel™ (BD Bioscience, Bedford, Mass.). 24-well plates were coated with 300 μl of unpolymerized Matrigel™ (5-7 mg prot/ml) and allowed to polymerize for 90 min at 37° C. HBEC (40,000 cells) were suspended in 500 μl of either DME, serum-free U87MG CM (collected as described in Cell Cultures) or growth factors (VEGF, IGF-1, bFGF) in the absence or presence of 20 nM of either full length recombinant IGFBP-1 (IBP1, produced at BRI-NRC), IGFBP-2 (IBP2, produced at BRI-NRC and purchased from R&D systems, Minneapolis), IGFBP-3 (IBP3, from R&D systems), IGFBP-4 (IBP4, produced at BRI-NRC), IGFBP-5 (IBP5, produced at BRI-NRC and purchased from R&D systems) and IGFBP-6 (IBP6, from R&D systems) or the C-terminal protein fragments of IGFP-1 (CIBP1), IGFBP-2 (CIBP2), IGFBP-4 (CIBP4), IGFBP-5 (CIBP5) and IGFBP-6 (CIBP6), all produced at BRI-NRC). The ability of a synthetic membrane permeable cathepsin B inhibitor (CA074-ME, EMD Biosciences, Canada) to inhibit angiogenes and cathepsin B activity was also studied. CLT formation was analyzed after 24 h using an Olympus 1×50 microscope. Phase contrast images were captured with a digital video camera (Olympus U-CMT) and analyzed using Northern Eclipse v.5.0 software. Experiments were repeated three times. In order to determine the levels of cathepsin B activity in each experimental condition, at the end of the experiment, 6 μl of 26× Magic Red™ Cathepsin B reagent (Immunochemistry Technologies, LLC) were added to all the wells and maintained at 37° C. in dark for two hours. Cells were washed twice with HBSS and intracellular fluorescence quantification (530/25 nm excitation and 645/40 nm emission) was performed using a cytofluorimeter plate reader (Bio-Tek FL600).

For assay [4], the system named is U87MG cells. As to conditions: disclosed in copending PCT/CA2006/000250; cited from earlier work.
Assay [5] deals with human brain endothelial cells (HBEC). As to the kind of experiment: Confocal microscopy of AF647-CIBP-4 in HBEC. It counts as cell-based. As to conditions: 100 nM AF647 conjugate, 90 min. The method, then: 80 μl of 1 mM Alexa Fluor 647-NHS in DMSO was added to 0.4 ml of recombinant CIBP-4 (0.2 mg/ml) in 100 mM carbonate pH 8.4, and sample was incubated overnight at room temperature. The reaction was stopped with 150 μl of 200 mM ethanolamine pH 8.0. To remove free dye, sample was diluted with 4.5 ml of water and loaded onto 1 ml Co^+2-Talon Metal Affinity column equilibrated with PBS. The column was exhaustively washed with PBS and CIBP-4 eluted with 2 ml of 1 M imidazole in PBS. To remove imidazole from AF647-CIBP-4 conjugate, the sample was concentrated to approximately 200 μl on Biomax (M.W. cut-off 5,000), diluted to original volume with PBS and concentrated again. That process of concentration/dilution was repeated three times. Final volume 0.5 ml (0.14 mg/ml). Recovery 86%.
HBEC (100,000 cell/well in a 24-well format plate) and U87MG (50,000) were respectively seeded on human fibronectin- (40 μg/ml) or poly-L-lysine-coated cover slips (Bellco Biotechnology) in 400 μl HBEC/U87MG media and grown until reached 80% confluence. Cells were then washed twice with DME and incubated in DME for 30 min at 37° C. […] Confocal images of […] were sequentially obtained using 488, 647 and 540-590 nm excitation laser lines to detect DiOC5(3) (510-525 nm emission) and Alexa 647 (670-810 nm emission) and Magic Red™ Cathepsin B (>610 nm) fluorescence.

On to `CCCNC(=O)[C@H]1O[C@@H]1C(=O)N[C@H](C(=O)N1CCC[C@H]1C(=O)OC)[C@@H](C)CC` [CA074-ME, reference compound], for which, at cathepsin B, the “inhibition of secreted cathepsin B activity in U87MG CM” value is roughly 40%. For the same molecule, the “inhibition of U87MG colony formation in soft agar (efficacy)” value with U87MG cells [1] (10 μM CA074-ME) is reported as roughly 70%.

B1: CIBP4: IGFBP-4 C-terminal fragment (aas 157-258, SEQ ID No. 6) with StreptagII-octahistidine tag (protein)
chain: MLLLLLLLGLRLQLSLGIASKVNGAPREDARPVPQGSCQSELHRALERLAASQSRTHEDLYIIPIPNCDRNGNFHPKQCHPALDGQRGKCWCVDRKTGVKLPGGLEPKGELDCHQLADSFREVDPWSHPQFEKTGHHHHHHHHGGQ
modifications: StreptagII-octahistidine tag; C-terminal fragment of IGFBP-4
For B1, in assay [2], the “inhibition of angiogenic response induced by U87MG conditioned media and growth factors (bFGF, VEGF, IGF-1)” value is reported as “can inhibit angiogenic response”. In addition, in the assay with U87MG cells on CAM (CAM), the “average size of the tumors in each weight interval vs vehicle” value is recorded as “similar”, the “increase in small size tumors (0-15 mg) vs vehicle” value was “three-fold” and the “reduction in number of large size tumors (20-36 mg) vs vehicle” value is on record as 3 fold. Besides, the “shift of tumor weight frequency distribution towards smaller tumors vs vehicle” value in the assay on U87MG cells on CAM (CAM, intervals 0-15, 15-20, 20-36 mg) is given as roughly 3 fold. Further, the “reduction of growth of U87MG cells on CAM (tumor weight) vs vehicle” value in the assay on U87MG cells on CAM (CIBP4 250 ng/ml as printed, applied days 11-14, weighed day 17, p<0.005) is on record as 20-25%. In assay [3], the “inhibition of angiogenesis (CLT formation by HBEC in Matrigel)” value was “reduction in CLT formation”. Further, in the assay on U87MG cells [1] (20 nM), the “inhibition of U87MG colony formation in soft agar (efficacy)” value is recorded as roughly 50%. In addition, the “reduction of U87MG colony formation in soft agar” value in the assay with U87MG cells [4] is recorded as “able to reduce U87MG colony formation”. In addition, the “co-localization with lysosomes (Lysotracker) in HBEC” value in assay [5] was “Co-localization”.

The values above are taken from patent US20100279937A1, “Method of Inhibiting Angiogenesis, Tumorigenesis and Cathepsin Activity” (priority 2006, published 2010).
